Data from patent US20250250357A1 (NANJING ZAIMING PHARMACEUTICAL, published 2025).
Where a chain is given by its changes, count along the chain named.

B1: F7.44.20-H3 (scFv, not shown: small tags and cut ends)
scFv: EVQLVQSGAEVKKPGASVKVSCKASGYTFTDYNMDWVRQAPGQGLEWMGDINPSTGGTIYNQKFNGRVTMTEDKSTSTVYMELSSLRSEDTAVYYCARRRIGTGYFDVWGQGTTVTVSSGGGGSGGGGSGGGGSEIVLTQSPATLSLSPGERATLSCSASSSVISSYLSWYQQKPGQSPRLLIYRTSNLASGIPARFSGSGSGTDYTLTISSLEPEDFAVYYCHQWSSFPYTFGGGTKVEIK
notes: also called S009-F7.44.20 humanized antibody VH1 + VL3
B2: F7.44.20-H12 (scFv, not shown: small tags and cut ends)
scFv: B1 scFv with T76A, Q177S
notes: also called S009-F7.44.20 humanized antibody VH2 + VL4
B3: F7.44.20-H7 (scFv, not shown: small tags and cut ends)
scFv: B1 scFv with N65Q
notes: also called S009-F7.44.20 humanized antibody VH1a + VL3
B4: F7.44.20-H8 (scFv, not shown: small tags and cut ends)
scFv: B1 scFv with N65Q, Q177S
notes: also called S009-F7.44.20 humanized antibody VH1a + VL4
B5: F7.44.20-H11 (scFv, not shown: small tags and cut ends)
scFv: B1 scFv with T76A
notes: also called S009-F7.44.20 humanized antibody VH2 + VL3
B6: F7.44.20-H4 (scFv, not shown: small tags and cut ends)
scFv: B1 scFv with Q177S
notes: also called S009-F7.44.20 humanized antibody VH1 + VL4
B7: F7.44.20-H15 (scFv, not shown: small tags and cut ends)
scFv: B1 scFv with N65S, T76A
notes: also called S009-F7.44.20 humanized antibody VH2a + VL3
B8: F7.44.20-H1 (scFv, not shown: small tags and cut ends)
scFv: EVQLVQSGAEVKKPGASVKVSCKASGYTFTDYNMDWVRQAPGQGLEWMGDINPSTGGTIYNQKFNGRVTMTEDKSTSTVYMELSSLRSEDTAVYYCARRRIGTGYFDVWGQGTTVTVSSGGGGSGGGGSGGGGSEIVLTQSPDFQSVTPKEKVTITCSASSSVISSYLSWYQQKPDQSPKLLIYRTSNLASGVPSRFSGSGSGTDFTLTINSLEAEDAATYYCHQWSSFPYTFGGGTKVEIK
notes: also called S009-F7.44.20 humanized antibody VH1 + VL1
B9: F7.44.20-H10 (scFv, not shown: small tags and cut ends)
scFv: B8 scFv with T76A, F206Y
notes: also called S009-F7.44.20 humanized antibody VH2 + VL2
B10: F7.44.20-H5 (scFv, not shown: small tags and cut ends)
scFv: B8 scFv with N65Q
notes: also called S009-F7.44.20 humanized antibody VH1a + VL1
B11: F7.44.20-H6 (scFv, not shown: small tags and cut ends)
scFv: B8 scFv with N65Q, F206Y
notes: also called S009-F7.44.20 humanized antibody VH1a + VL2
B12: F7.44.20-H2 (scFv, not shown: small tags and cut ends)
scFv: B8 scFv with F206Y
notes: also called S009-F7.44.20 humanized antibody VH1 + VL2
B13: F7.44.20-H9 (scFv, not shown: small tags and cut ends)
scFv: B8 scFv with T76A
notes: also called S009-F7.44.20 humanized antibody VH2 + VL1
B14: F7.44.20-H14 (scFv, not shown: small tags and cut ends)
scFv: B8 scFv with N65S, T76A, F206Y
notes: also called S009-F7.44.20 humanized antibody VH2a + VL2
B15: F7.44.20-H13 (scFv, not shown: small tags and cut ends)
scFv: B8 scFv with N65S, T76A
notes: also called S009-F7.44.20 humanized antibody VH2a + VL1

target: T1, human MSLN-R3 protein (human, UniProt Q13421 487-598); assay: ELISA on coated antigen, antibody 10 nM
T1 construct: also called hMSLN-R3
T1 sequence (Q13421 495-606, form in doubt): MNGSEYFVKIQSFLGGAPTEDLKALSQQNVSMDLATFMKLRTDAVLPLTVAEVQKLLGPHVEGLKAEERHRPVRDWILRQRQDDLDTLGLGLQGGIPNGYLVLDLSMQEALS

OD450 | Binder
2.12 OD450 | B1
2.12 OD450 | B2
2.23 OD450 | B3
2.07 OD450 | B4
2.41 OD450 | B5
2.11 OD450 | B6
1.85 OD450 | B7
2.27 OD450 | B8
2.25 OD450 | B9
2.05 OD450 | B10
2.15 OD450 | B11
2.22 OD450 | B12
2.1 OD450 | B13
1.69 OD450 | B14
1.57 OD450 | B15

target: T1, human MSLN-R3 protein; assay: ELISA on coated antigen, antibody 0.01 nM

OD450 | Binder
0.04 OD450 | B1
0.05 OD450 | B2
0.05 OD450 | B3
0.04 OD450 | B4
0.05 OD450 | B5
0.04 OD450 | B6
0.04 OD450 | B7
0.06 OD450 | B8
0.04 OD450 | B9
0.04 OD450 | B10
0.05 OD450 | B11
0.05 OD450 | B12
0.04 OD450 | B13
0.04 OD450 | B14
0.05 OD450 | B15

target: T1, human MSLN-R3 protein; assay: ELISA on coated antigen, antibody 0.001 nM

OD450 | Binder
0.04 OD450 | B1
0.05 OD450 | B2
0.04 OD450 | B3
0.04 OD450 | B4
0.04 OD450 | B5
0.04 OD450 | B6
0.04 OD450 | B7
0.05 OD450 | B8
0.04 OD450 | B9
0.04 OD450 | B10
0.05 OD450 | B11
0.05 OD450 | B12
0.04 OD450 | B13
0.04 OD450 | B14
0.05 OD450 | B15

target: T2, human MSLN-hFc protein (Acro, Cat. No. MSN-H5253) (human, UniProt Q13421 296-580); assay: ELISA on coated antigen, antibody 0.01 nM
T2 construct: the method names the coated protein as human MSLN-hFc (Acro); also called human MSLN full-length protein
T2 sequence (Q13421 other isoform, or with tags, fused parts or gaps limits assumed): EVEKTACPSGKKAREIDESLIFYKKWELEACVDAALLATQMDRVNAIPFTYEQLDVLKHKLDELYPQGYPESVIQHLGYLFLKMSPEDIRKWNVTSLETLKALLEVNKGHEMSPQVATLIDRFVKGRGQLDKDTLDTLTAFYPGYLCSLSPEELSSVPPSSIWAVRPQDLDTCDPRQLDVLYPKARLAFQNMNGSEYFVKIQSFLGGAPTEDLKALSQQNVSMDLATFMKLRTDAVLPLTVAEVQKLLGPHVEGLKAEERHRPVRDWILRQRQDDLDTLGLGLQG

OD450 | Binder
0.06 OD450 | B1
0.06 OD450 | B2
0.06 OD450 | B3
0.05 OD450 | B4
0.06 OD450 | B5
0.06 OD450 | B6
0.06 OD450 | B7
0.06 OD450 | B8
0.06 OD450 | B9
0.05 OD450 | B10
0.07 OD450 | B11
0.05 OD450 | B12
0.06 OD450 | B13
0.07 OD450 | B14
0.06 OD450 | B15

target: T1, human MSLN-R3 protein; assay: ELISA on coated antigen, antibody 100 nM

OD450 | Binder
2.21 OD450 | B1
2.44 OD450 | B2
2.1 OD450 | B3
2.15 OD450 | B4
2.43 OD450 | B5
2.32 OD450 | B6
1.86 OD450 | B7
2.3 OD450 | B8
2.44 OD450 | B9
2.27 OD450 | B10
2.12 OD450 | B11
2.35 OD450 | B12
2.52 OD450 | B13
1.9 OD450 | B14
1.94 OD450 | B15

target: T2, human MSLN-hFc protein (Acro, Cat. No. …); assay: ELISA on coated antigen, antibody 0.001 nM

OD450 | Binder
0.04 OD450 | B1
0.05 OD450 | B2
0.04 OD450 | B3
0.04 OD450 | B4
0.05 OD450 | B5
0.04 OD450 | B6
0.05 OD450 | B7
0.05 OD450 | B8
0.04 OD450 | B9
0.04 OD450 | B10
0.05 OD450 | B11
0.04 OD450 | B12
0.05 OD450 | B13
0.05 OD450 | B14
0.06 OD450 | B15

target: T1, human MSLN-R3 protein; assay: ELISA on coated antigen, antibody 0.0001 nM

OD450 | Binder
0.05 OD450 | B1
0.05 OD450 | B2
0.05 OD450 | B3
0.05 OD450 | B4
0.05 OD450 | B5
0.05 OD450 | B6
0.05 OD450 | B7
0.05 OD450 | B8
0.04 OD450 | B9
0.05 OD450 | B10
0.05 OD450 | B11
0.05 OD450 | B12
0.04 OD450 | B13
0.04 OD450 | B14
0.05 OD450 | B15

target: T1, human MSLN-R3 protein; assay: ELISA on coated antigen, antibody 0.1 nM

OD450 | Binder
0.1 OD450 | B1
0.09 OD450 | B2
0.16 OD450 | B3
0.09 OD450 | B4
0.16 OD450 | B5
0.1 OD450 | B6
0.11 OD450 | B7
0.16 OD450 | B8
0.11 OD450 | B9
0.11 OD450 | B10
0.21 OD450 | B11
0.11 OD450 | B12
0.11 OD450 | B13
0.1 OD450 | B14
0.08 OD450 | B15

target: T2, human MSLN-hFc protein (Acro, Cat. No. …); assay: ELISA on coated antigen, antibody 0.0001 nM

OD450 | Binder
0.04 OD450 | B1
0.05 OD450 | B2
0.04 OD450 | B3
0.05 OD450 | B4
0.05 OD450 | B5
0.05 OD450 | B6
0.05 OD450 | B7
0.05 OD450 | B8
0.05 OD450 | B9
0.04 OD450 | B10
0.05 OD450 | B11
0.04 OD450 | B12
0.05 OD450 | B13
0.05 OD450 | B14
0.06 OD450 | B15

target: T2, human MSLN-hFc protein (Acro, Cat. No. …); assay: ELISA on coated antigen, antibody 100 nM

OD450 | Binder
2.96 OD450 | B1
3.17 OD450 | B2
3.05 OD450 | B3
3.09 OD450 | B4
3.28 OD450 | B5
3.2 OD450 | B6
3.26 OD450 | B7
3.04 OD450 | B8
3.25 OD450 | B9
2.94 OD450 | B10
3.04 OD450 | B11
3.06 OD450 | B12
3.25 OD450 | B13
3.13 OD450 | B14
3.12 OD450 | B15

target: T2, human MSLN-hFc protein (Acro, Cat. No. …); assay: ELISA on coated antigen, antibody 0.1 nM

OD450 | Binder
0.15 OD450 | B1
0.16 OD450 | B2
0.3 OD450 | B3
0.15 OD450 | B4
0.27 OD450 | B5
0.19 OD450 | B6
0.19 OD450 | B7
0.22 OD450 | B8
0.24 OD450 | B9
0.19 OD450 | B10
0.37 OD450 | B11
0.16 OD450 | B12
0.19 OD450 | B13
0.19 OD450 | B14
0.16 OD450 | B15

target: T1, human MSLN-R3 protein; assay: ELISA on coated antigen, antibody 1 nM

OD450 | Binder
0.83 OD450 | B1
0.6 OD450 | B2
1.18 OD450 | B3
0.76 OD450 | B4
1.1 OD450 | B5
0.74 OD450 | B6
0.77 OD450 | B7
1.16 OD450 | B8
0.81 OD450 | B9
0.8 OD450 | B10
1.31 OD450 | B11
0.95 OD450 | B12
0.72 OD450 | B13
0.66 OD450 | B14
0.45 OD450 | B15

target: T2, human MSLN-hFc protein (Acro, Cat. No. …); assay: ELISA on coated antigen, antibody 10 nM

OD450 | Binder
2.74 OD450 | B1
2.92 OD450 | B2
2.99 OD450 | B3
2.55 OD450 | B4
2.91 OD450 | B5
2.99 OD450 | B6
2.78 OD450 | B7
2.94 OD450 | B8
2.93 OD450 | B9
3.01 OD450 | B10
2.91 OD450 | B11
2.71 OD450 | B12
2.97 OD450 | B13
2.89 OD450 | B14
2.81 OD450 | B15

target: T2, human MSLN-hFc protein (Acro, Cat. No. …); assay: ELISA on coated antigen, antibody 1 nM

OD450 | Binder
1.22 OD450 | B1
1.02 OD450 | B2
1.74 OD450 | B3
1.13 OD450 | B4
1.69 OD450 | B5
1.14 OD450 | B6
1.24 OD450 | B7
1.46 OD450 | B8
1.44 OD450 | B9
1.3 OD450 | B10
1.95 OD450 | B11
1.26 OD450 | B12
1.3 OD450 | B13
1.2 OD450 | B14
0.98 OD450 | B15
